Earlier results on one substance are cited in paper PMC3931689.

In general, Ki refers to a dissociation constant, usually derived from enzyme kinetics or from competition with a known ligand.

The target in the data set is Protein phosphatase 1 (Mus musculus) (UniProt P62137).
Sequence of UniProt P62137 (P62137 2-330): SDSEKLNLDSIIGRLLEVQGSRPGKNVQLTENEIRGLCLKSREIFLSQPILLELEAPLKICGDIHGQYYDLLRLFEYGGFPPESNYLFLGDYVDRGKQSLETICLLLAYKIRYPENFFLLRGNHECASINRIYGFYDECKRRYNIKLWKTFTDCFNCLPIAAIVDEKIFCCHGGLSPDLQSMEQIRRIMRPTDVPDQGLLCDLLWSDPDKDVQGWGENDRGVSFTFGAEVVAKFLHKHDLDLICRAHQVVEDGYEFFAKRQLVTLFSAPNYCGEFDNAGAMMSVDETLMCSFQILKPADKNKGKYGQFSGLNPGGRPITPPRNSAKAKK

Take Inhibitor-1 (from UniProt Q9ERT9): the Ki is 1 nM.
